T1: TNFR1 (Homo sapiens, UniProt P19438)
T1 chain: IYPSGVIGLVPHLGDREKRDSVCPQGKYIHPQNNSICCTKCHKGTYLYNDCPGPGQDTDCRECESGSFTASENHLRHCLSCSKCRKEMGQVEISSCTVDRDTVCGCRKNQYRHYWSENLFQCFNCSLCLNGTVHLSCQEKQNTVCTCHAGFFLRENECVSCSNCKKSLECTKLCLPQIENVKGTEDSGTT


Target: T1, TNFR1
Experiment: yeast display SC50

Row | apparent Kd (screen) | Binder
1 | 0.79 nM | R61S (designed binder) MTLQELLREEALRRAEAEAFRYALELLAEKFPEQKEYLLDLAEEIESQIRSLSGVDVEDVSKFLDKEWAWVKELLAEHPAELAEVEAARAARLAELRAEVEAKVAA
2 | 1.69 nM | L93P (designed binder) MTLQELLREEALRRAEAEAFRYALELLAEKFPEQKEYLLDLAEEIESQIRSLSGVDVEDVRKFLDKEWAWVKELLAEHPAELAEVEAARAARPAELRAEVEAKVAA
3 | 12.5 nM | L74R (designed binder) MTLQELLREEALRRAEAEAFRYALELLAEKFPEQKEYLLDLAEEIESQIRSLSGVDVEDVRKFLDKEWAWVKERLAEHPAELAEVEAARAARLAELRAEVEAKVAA
4 | 0.49 nM | K66L (designed binder) MTLQELLREEALRRAEAEAFRYALELLAEKFPEQKEYLLDLAEEIESQIRSLSGVDVEDVRKFLDLEWAWVKELLAEHPAELAEVEAARAARLAELRAEVEAKVAA
5 | 0.539 nM | A91V (designed binder) MTLQELLREEALRRAEAEAFRYALELLAEKFPEQKEYLLDLAEEIESQIRSLSGVDVEDVRKFLDKEWAWVKELLAEHPAELAEVEAARAVRLAELRAEVEAKVAA
6 | 0.79 nM | L38H (designed binder) MTLQELLREEALRRAEAEAFRYALELLAEKFPEQKEYHLDLAEEIESQIRSLSGVDVEDVRKFLDKEWAWVKELLAEHPAELAEVEAARAARLAELRAEVEAKVAA
7 | 0.869 nM | A80S (designed binder) MTLQELLREEALRRAEAEAFRYALELLAEKFPEQKEYLLDLAEEIESQIRSLSGVDVEDVRKFLDKEWAWVKELLAEHPSELAEVEAARAARLAELRAEVEAKVAA
8 | 11.4 nM | G54H (designed binder) MTLQELLREEALRRAEAEAFRYALELLAEKFPEQKEYLLDLAEEIESQIRSLSHVDVEDVRKFLDKEWAWVKELLAEHPAELAEVEAARAARLAELRAEVEAKVAA
9 | 0.539 nM | Y37K (designed binder) MTLQELLREEALRRAEAEAFRYALELLAEKFPEQKEKLLDLAEEIESQIRSLSGVDVEDVRKFLDKEWAWVKELLAEHPAELAEVEAARAARLAELRAEVEAKVAA
10 | 0.304 nM | I49H (designed binder) MTLQELLREEALRRAEAEAFRYALELLAEKFPEQKEYLLDLAEEIESQHRSLSGVDVEDVRKFLDKEWAWVKELLAEHPAELAEVEAARAARLAELRAEVEAKVAA
11 | 5.31 nM | F63K (designed binder) MTLQELLREEALRRAEAEAFRYALELLAEKFPEQKEYLLDLAEEIESQIRSLSGVDVEDVRKKLDKEWAWVKELLAEHPAELAEVEAARAARLAELRAEVEAKVAA
12 | 0.539 nM | E36L (designed binder) MTLQELLREEALRRAEAEAFRYALELLAEKFPEQKLYLLDLAEEIESQIRSLSGVDVEDVRKFLDKEWAWVKELLAEHPAELAEVEAARAARLAELRAEVEAKVAA
13 | 0.956 nM | E43Q (designed binder) MTLQELLREEALRRAEAEAFRYALELLAEKFPEQKEYLLDLAQEIESQIRSLSGVDVEDVRKFLDKEWAWVKELLAEHPAELAEVEAARAARLAELRAEVEAKVAA
14 | 2.73 nM | L52N (designed binder) MTLQELLREEALRRAEAEAFRYALELLAEKFPEQKEYLLDLAEEIESQIRSNSGVDVEDVRKFLDKEWAWVKELLAEHPAELAEVEAARAARLAELRAEVEAKVAA
15 | 0.49 nM | A87H (designed binder) MTLQELLREEALRRAEAEAFRYALELLAEKFPEQKEYLLDLAEEIESQIRSLSGVDVEDVRKFLDKEWAWVKELLAEHPAELAEVEHARAARLAELRAEVEAKVAA
16 | 13.8 nM | L64V (designed binder) MTLQELLREEALRRAEAEAFRYALELLAEKFPEQKEYLLDLAEEIESQIRSLSGVDVEDVRKFVDKEWAWVKELLAEHPAELAEVEAARAARLAELRAEVEAKVAA
17 | 0.304 nM | S51H (designed binder) MTLQELLREEALRRAEAEAFRYALELLAEKFPEQKEYLLDLAEEIESQIRHLSGVDVEDVRKFLDKEWAWVKELLAEHPAELAEVEAARAARLAELRAEVEAKVAA
18 | 0.718 nM | I45W (designed binder) MTLQELLREEALRRAEAEAFRYALELLAEKFPEQKEYLLDLAEEWESQIRSLSGVDVEDVRKFLDKEWAWVKELLAEHPAELAEVEAARAARLAELRAEVEAKVAA

The remaining lines, values behind:

Row | Binder | apparent Kd (screen)
19 | K30R (designed binder) MTLQELLREEALRRAEAEAFRYALELLAERFPEQKEYLLDLAEEIESQIRSLSGVDVEDVRKFLDKEWAWVKELLAEHPAELAEVEAARAARLAELRAEVEAKVAA | 0.593 nM
20 | R21P (designed binder) MTLQELLREEALRRAEAEAFPYALELLAEKFPEQKEYLLDLAEEIESQIRSLSGVDVEDVRKFLDKEWAWVKELLAEHPAELAEVEAARAARLAELRAEVEAKVAA | 0.49 nM
21 | E25G (designed binder) MTLQELLREEALRRAEAEAFRYALGLLAEKFPEQKEYLLDLAEEIESQIRSLSGVDVEDVRKFLDKEWAWVKELLAEHPAELAEVEAARAARLAELRAEVEAKVAA | 0.49 nM
22 | A17T (designed binder) MTLQELLREEALRRAETEAFRYALELLAEKFPEQKEYLLDLAEEIESQIRSLSGVDVEDVRKFLDKEWAWVKELLAEHPAELAEVEAARAARLAELRAEVEAKVAA | 0.446 nM
23 | L12T (designed binder) MTLQELLREEATRRAEAEAFRYALELLAEKFPEQKEYLLDLAEEIESQIRSLSGVDVEDVRKFLDKEWAWVKELLAEHPAELAEVEAARAARLAELRAEVEAKVAA | 0.718 nM
24 | A15F (designed binder) MTLQELLREEALRRFEAEAFRYALELLAEKFPEQKEYLLDLAEEIESQIRSLSGVDVEDVRKFLDKEWAWVKELLAEHPAELAEVEAARAARLAELRAEVEAKVAA | 0.653 nM
25 | E9V (designed binder) MTLQELLRVEALRRAEAEAFRYALELLAEKFPEQKEYLLDLAEEIESQIRSLSGVDVEDVRKFLDKEWAWVKELLAEHPAELAEVEAARAARLAELRAEVEAKVAA | 0.869 nM
26 | R8T (designed binder) MTLQELLTEEALRRAEAEAFRYALELLAEKFPEQKEYLLDLAEEIESQIRSLSGVDVEDVRKFLDKEWAWVKELLAEHPAELAEVEAARAARLAELRAEVEAKVAA | 0.79 nM
27 | R21Y (designed binder) MTLQELLREEALRRAEAEAFYYALELLAEKFPEQKEYLLDLAEEIESQIRSLSGVDVEDVRKFLDKEWAWVKELLAEHPAELAEVEAARAARLAELRAEVEAKVAA | 0.49 nM
28 | E29R (designed binder) MTLQELLREEALRRAEAEAFRYALELLARKFPEQKEYLLDLAEEIESQIRSLSGVDVEDVRKFLDKEWAWVKELLAEHPAELAEVEAARAARLAELRAEVEAKVAA | 0.49 nM
29 | E33R (designed binder) MTLQELLREEALRRAEAEAFRYALELLAEKFPRQKEYLLDLAEEIESQIRSLSGVDVEDVRKFLDKEWAWVKELLAEHPAELAEVEAARAARLAELRAEVEAKVAA | 0.49 nM
30 | L27R (designed binder) MTLQELLREEALRRAEAEAFRYALELRAEKFPEQKEYLLDLAEEIESQIRSLSGVDVEDVRKFLDKEWAWVKELLAEHPAELAEVEAARAARLAELRAEVEAKVAA | 0.49 nM
31 | K30V (designed binder) MTLQELLREEALRRAEAEAFRYALELLAEVFPEQKEYLLDLAEEIESQIRSLSGVDVEDVRKFLDKEWAWVKELLAEHPAELAEVEAARAARLAELRAEVEAKVAA | 0.446 nM
32 | F20S (designed binder) MTLQELLREEALRRAEAEASRYALELLAEKFPEQKEYLLDLAEEIESQIRSLSGVDVEDVRKFLDKEWAWVKELLAEHPAELAEVEAARAARLAELRAEVEAKVAA | 1.05 nM
33 | Y22A (designed binder) MTLQELLREEALRRAEAEAFRAALELLAEKFPEQKEYLLDLAEEIESQIRSLSGVDVEDVRKFLDKEWAWVKELLAEHPAELAEVEAARAARLAELRAEVEAKVAA | 0.79 nM
34 | E9W (designed binder) MTLQELLRWEALRRAEAEAFRYALELLAEKFPEQKEYLLDLAEEIESQIRSLSGVDVEDVRKFLDKEWAWVKELLAEHPAELAEVEAARAARLAELRAEVEAKVAA | 0.405 nM
35 | A11L (designed binder) MTLQELLREELLRRAEAEAFRYALELLAEKFPEQKEYLLDLAEEIESQIRSLSGVDVEDVRKFLDKEWAWVKELLAEHPAELAEVEAARAARLAELRAEVEAKVAA | 2.05 nM
